Patent US20060282909A1 (published 2006)

How the values were obtained:
[1] = biological target: T1, NF-AT3 full length (NFATC4) (UniProt Q14934); assay: cell_activity; details: CAT reporter activation with GATA4, NF-AT3 and activated calcineurin together in rat cardiomyocytes
T1 sequence: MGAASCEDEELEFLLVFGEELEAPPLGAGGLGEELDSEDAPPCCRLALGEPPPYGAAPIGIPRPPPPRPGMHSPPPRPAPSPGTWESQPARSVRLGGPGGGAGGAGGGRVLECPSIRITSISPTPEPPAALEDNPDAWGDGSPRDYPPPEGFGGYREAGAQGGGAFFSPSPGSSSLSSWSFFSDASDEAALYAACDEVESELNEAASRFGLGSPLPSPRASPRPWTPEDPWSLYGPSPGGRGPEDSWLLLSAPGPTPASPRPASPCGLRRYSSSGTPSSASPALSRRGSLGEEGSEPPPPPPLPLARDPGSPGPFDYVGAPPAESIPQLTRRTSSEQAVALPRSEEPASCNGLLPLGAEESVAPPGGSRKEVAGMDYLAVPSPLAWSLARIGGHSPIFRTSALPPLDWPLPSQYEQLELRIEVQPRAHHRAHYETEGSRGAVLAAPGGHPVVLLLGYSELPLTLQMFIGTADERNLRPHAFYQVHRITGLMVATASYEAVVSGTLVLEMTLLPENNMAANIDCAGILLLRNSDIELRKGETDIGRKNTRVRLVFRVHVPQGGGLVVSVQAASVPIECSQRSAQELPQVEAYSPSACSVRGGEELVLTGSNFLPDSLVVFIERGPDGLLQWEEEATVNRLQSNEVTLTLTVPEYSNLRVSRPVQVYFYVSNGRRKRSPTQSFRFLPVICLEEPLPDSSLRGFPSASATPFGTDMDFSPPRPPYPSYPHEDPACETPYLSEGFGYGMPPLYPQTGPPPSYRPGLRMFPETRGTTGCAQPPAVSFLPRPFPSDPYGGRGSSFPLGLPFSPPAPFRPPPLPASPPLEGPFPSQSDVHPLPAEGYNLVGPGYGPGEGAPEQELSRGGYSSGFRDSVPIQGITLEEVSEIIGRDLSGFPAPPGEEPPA

[2] = biological target: full-length GATA4 (UniProt Q08369 1-441, limits assumed); assay: cell-based or functional assay
Sequence of full-length GATA4 (Q08369 whole entry): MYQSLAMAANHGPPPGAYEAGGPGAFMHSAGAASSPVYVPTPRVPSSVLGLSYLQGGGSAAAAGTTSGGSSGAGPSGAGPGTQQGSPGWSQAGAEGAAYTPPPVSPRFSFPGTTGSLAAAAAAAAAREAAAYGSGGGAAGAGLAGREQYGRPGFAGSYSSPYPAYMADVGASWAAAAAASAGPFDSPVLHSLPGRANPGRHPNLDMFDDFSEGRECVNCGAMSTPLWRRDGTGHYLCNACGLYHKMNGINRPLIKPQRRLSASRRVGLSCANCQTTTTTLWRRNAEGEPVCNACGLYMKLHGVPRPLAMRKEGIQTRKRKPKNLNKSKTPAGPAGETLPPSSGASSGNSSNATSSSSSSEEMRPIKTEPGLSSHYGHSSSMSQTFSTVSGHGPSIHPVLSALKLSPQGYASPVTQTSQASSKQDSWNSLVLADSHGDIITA

For BNP promoter 1800 bp, the activity [1] was > 100 fold.

B1: full length NF-AT3 (other)
chain: MGAASCEDEELEFLLVFGEELEAPPLGAGGLGEELDSEDAPPCCRLALGEPPPYGAAPIGIPRPPPPRPGMHSPPPRPAPSPGTWESQPARSVRLGGPGGGAGGAGGGRVLECPSIRITSISPTPEPPAALEDNPDAWGDGSPRDYPPPEGFGGYREAGAQGGGAFFSPSPGSSSLSSWSFFSDASDEAALYAACDEVESELNEAASRFGLGSPLPSPRASPRPWTPEDPWSLYGPSPGGRGPEDSWLLLSAPGPTPASPRPASPCGLRRYSSSGTPSSASPALSRRGSLGEEGSEPPPPPPLPLARDPGSPGPFDYVGAPPAESIPQLTRRTSSEQAVALPRSEEPASCNGLLPLGAEESVAPPGGSRKEVAGMDYLAVPSPLAWSLARIGGHSPIFRTSALPPLDWPLPSQYEQLELRIEVQPRAHHRAHYETEGSRGAVLAAPGGHPVVLLLGYSELPLTLQMFIGTADERNLRPHAFYQVHRITGLMVATASYEAVVSGTLVLEMTLLPENNMAANIDCAGILLLRNSDIELRKGETDIGRKNTRVRLVFRVHVPQGGGLVVSVQAASVPIECSQRSAQELPQVEAYSPSACSVRGGEELVLTGSNFLPDSLVVFIERGPDGLLQWEEEATVNRLQSNEVTLTLTVPEYSNLRVSRPVQVYFYVSNGRRKRSPTQSFRFLPVICLEEPLPDSSLRGFPSASATPFGTDMDFSPPRPPYPSYPHEDPACETPYLSEGFGYGMPPLYPQTGPPPSYRPGLRMFPETRGTTGCAQPPAVSFLPRPFPSDPYGGRGSSFPLGLPFSPPAPFRPPPLPASPPLEGPFPSQSDVHPLPAEGYNLVGPGYGPGEGAPEQELSRGGYSSGFRDSVPIQGITLEEVSEIIGRDLSGFPAPPGEEPPA
With B1 the “activation of the BNP promoter (CAT reporter) in transfected neonatal rat cardiomyocytes” value [2] was > 100 fold.
